Measurements: the supplement of paper PMC9170038

System: MS2 coat protein
Test: apparent KD of MS2 coat protein; designed switch direction (-1 OFF switch, 1 ON switch): -1; higher = weaker reporter binding
In short: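 Designed RNA switches were transcribed on Illumina chips by stalled E. coli RNA polymerase and titrated with SNAP-549-labelled MS2 coat protein from 0.7 or 1.5 nM, doubling to 3 µM. Step length ran from 0.8–1.5 h at the lowest concentration to 10–20 min at the highest. The apparent KD is the median over clusters for each design, from curve-fitted normalised cluster fluorescence.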

[1] = Eterna round: R95, input ligand: FMN 200 uM
[2] = Eterna round: R95, input ligand: microRNA oligo, concentration not stated
[3] = Eterna round: R95, input ligand: none
[4] = input ligand: microRNA oligo, concentration not stated

Sequence | apparent KD of MS2 coat protein (input ligand: FMN 200 uM) | apparent KD of MS2 coat protein (input ligand: none) | apparent KD of MS2 coat protein [1] | apparent KD of MS2 coat protein [2] | apparent KD of MS2 coat protein [3] | apparent KD of MS2 coat protein [4]
GUUCUUCCUGUAAGGAUAUCCAUGUGUCGGUUUAUGGAGAAGGUACAUGAGGAUCACCCAUGUCACCCGCGUUA (Eterna round: R97, puzzle: Brourd's mod of Exclusion 4) | 45.9 nM | 18.5 nM | – | – | – | –
AGAAAGCAAGGAUAUACGAGGAGAAGGUGGAGAGUUAAAGGACAUGAGGAUCACCCAUGUAGAAGGUGCGAGAA [JR_Exclu2_Sub044] (puzzle: Exclusion 2) | – | – | 122 nM | 67.1 nM | 72 nM | –
GGCGAAGUAGGAUAUACAUGAGGAUCACCCAUGUAACCUGAUGGCGUAGGUCUUCUAUGUAGAAGGACUACGCC [jl-ex3-4.39 ViennaUCT mod] (Eterna round: R97, puzzle: Exclusion 3) | 15.9 nM | 18.1 nM | – | – | – | –
CUGAACUGAGGAUAUACAUGAGGAUCACCCAUGUGAUGUAGUGCACGCGUACGUGUACGUAGAAGGCAGUUCAG [Mat - Exclusion 3 - Eli Mod - D42] (Eterna round: R97, puzzle: Exclusion 3) | 56.1 nM | 19.8 nM | – | – | – | –
GGGCGUGAAGGAUAUACAUGAGGAUCACCCAUGUGGGAGGAGAGUGGUGAGGAGGCUGGUAGAAGGUCAGGAGG [JR_Exclusion3_Sub008] (puzzle: Exclusion 3) | – | – | – | 27.7 nM | – | –
AUAUACGGAGGAUAUACUUGAGGAUCACCCAAGUGGAAUCCCGUUUGGGCGGUAAAUAGUAGAAGGCCGACCCA [jl-ex3-4.42 ViennaUCT mod] (Eterna round: R97, puzzle: Exclusion 3) | 17.7 nM | 16.3 nM | – | – | – | –
GGGCUGUCAGGAUAUGGGCCCGGGCCCGAAAGGGCCCGGGCCCAGAAGGGACAUGAGGAUCACCCAUGUGGCCC [-51.3, -50.3 kcal, A 22%] (Eterna round: R97, puzzle: Exclusion 4) | 43 nM | 37.7 nM | – | – | – | –
GAUGGCUAAGGAUAUACAUAGAAGAAUUGAACUUGGAUUAUACAUGAGGAUCACCCAUGUAGAAGGUAGUCAUC [ExGluten 3 - Jieux - Exclusion 2] (Eterna round: R97, puzzle: Exclusion 2) | 82.9 nM | 24.6 nM | – | – | – | –
AAAUAAACAAGCAACUCGAACAUGAGGAUCACCCAUGUAAAGGGUGAAUCGUCCACCCAAAAAAAAAAUAAAAAAAA [Mat - Sensor v2 - Eli mod - 132] (Eterna round: R96, puzzle: Sensor v2, turn-off variant) | 57.7 nM | 55.9 nM | – | – | – | 116 nM
ACAGUACUGCAAGGAUAUCGUUCUAGUUUAUUACGAGAAGGUGCUUUAGUUAUUUCUUUGUGUUGACAUGAGGAUCACCCAUGU [JR_ExcNG1_Sub055] (Eterna round: R96, puzzle: Exclusion NG 1) | 18.9 nM | 26.4 nM | – | – | – | 17.9 nM
UAAUAUCUGAUUCUUGAGAUACAUGAGGAUCACCCAUGUUCACAGGAUAUUGAUUUUAAGAAAAGCAAGAAGGGUGAAUCAUUU [JR_ExcNG3_Sub041] (Eterna round: R96, puzzle: Exclusion NG 3) | 26.9 nM | 22.9 nM | – | – | – | 16.5 nM
UUUACAAGCUAUUGAUCCCACAUGAGGAUCACCCAUGUUCCUGGCCGUGAGGCUAGGUAAACAAUUGCUCGUCUUAU [JL TOV1 3.69] (Eterna round: R97, puzzle: Sensor, turn-off variant 1) | 903 nM | 1370 nM | – | – | – | –
AAAAAACAAGGAUAUACAAAAAAAAAAUGUGUUAAAUUUUCACAUGAGGAUCACCCAUGUAGAAGGUGUAAAAA [JR_Exclusion2_Sub005] (puzzle: Exclusion 2) | – | – | 46 nM | 49.1 nM | 51.7 nM | –
GCUUGUGUUGAGGAUAUGCGCCGGCUCGCUGGCGCAGAAGGCGGCACAUGAGGAUCACCCAUGUCAGUUCGCGG [salish99_ex6_r004_009] (Eterna round: R97, puzzle: Exclusion 6) | 321 nM | 93.8 nM | – | – | – | –
GCUGGUCGAGGAUAUGCAAUCGUGCUUCGGCACGUAAGAUCACAUGAGGAUCACCCAUGUAGAAGGUGACCAGC [E2/3-B1] (Eterna round: R97, puzzle: Exclusion 2) | 31.2 nM | 17.8 nM | – | – | – | –
AGAGUGUGAGGAUAUAUGGUGAAGGUGAAGAGAGAGGAGGAGUAGAAGGUACAUGAGGAUCACCCAUGUUUGGA [JR_Exclu4_Sub075] (puzzle: Exclusion 4) | – | – | 32.1 nM | 33 nM | 40.8 nM | –

Sequence | apparent KD of MS2 coat protein (input ligand: FMN 200 uM) | apparent KD of MS2 coat protein (input ligand: none) | apparent KD of MS2 coat protein [1] | apparent KD of MS2 coat protein [2] | apparent KD of MS2 coat protein [3] | apparent KD of MS2 coat protein [4]
GAACUGAAGCUUUGCUUUAGUCGUACAUGAGGAUCACCCAUGUAGGAUAUGGUAGGCAAAGCUUACUAGAAGGACAGAGUGAUC [Mat - Exclusion NG 3 - Mod of JL - D69] (Eterna round: R96, puzzle: Exclusion NG 3) | 99.1 nM | 71.3 nM | – | – | – | 156 nM
AUAAUACAUGAGGAUCACCCAUGUGAGGAUAUACGACUCCAACCUAACAGCUUGGACCGUAGAAGGCACAAGGG [Exclusion 1 (MOD1.2 Esqu)] (Eterna round: R97, puzzle: Exclusion 1) | 54.5 nM | 261 nM | – | – | – | –
AAAACAAAAGGAUAUACAUGAGGAUCACCCAUGUGGCGAUAAAUCGCCGCUAAACCAUGUAGAAGGUUUGCGAA [EX3 A.2] (Eterna round: R97, puzzle: Exclusion 3) | 102 nM | 42.6 nM | – | – | – | –
GCGCCAUCGUGAGAUGGCGUAUAUACAUGAGGAUCACCCAUGUAGGAUAUCGAUUGCUUUGCAGUCGAGAAGGGCAAGGUAUUU [JL ENG3 3.91] (Eterna round: R96, puzzle: Exclusion NG 3) | 34 nM | 33.8 nM | – | – | – | 25.5 nM
CGAAUGUCAGGAUAUCGUGCAUACAACGAAAGUUCUAUGUGCGAGAAGGGACAUGAGGAUCACCCAUGUCUUCG [Omei Ex4 A14] (Eterna round: R97, puzzle: Exclusion 4) | 75.6 nM | 27.1 nM | – | – | – | –
AUCGUGCAGCUUUGCUGUACGAGUACAUGAGGAUCACCCAUGUAGGAUAUGGUACGCUUUGCGUGCUAGAAGGAUAUGAGAUGU [JL ENG3 1.49] (Eterna round: R96, puzzle: Exclusion NG 3) | 37.6 nM | 33 nM | – | – | – | 32 nM
AACUCGUUAGGAUAUACCGCCAACGAUACCUCGUGAAACAUACAUGAGGAUCACCCAUGUAGAAGGAGCGAGCA [Vearbe] (puzzle: Exclusion 2) | – | – | – | 15.7 nM | – | –
AUGUUACAUGAGGAUCACCCAUGUGAGGAUAUGAGUCAGUCACGGUGACGUGGCUGACUCAGAAGGCACUAUGG [JL-ex1-4.39 salish99 mod] (Eterna round: R97, puzzle: Exclusion 1) | 146 nM | 279 nM | – | – | – | –
AGGUCAGAAGGAUAUACAUGAGGAUCACCCAUGUGGGAUACAACGAGCCGUUGUUCAGGUAGAAGGUCUAAAAU [Eternabot (Original) Solution 33] (Eterna round: R97, puzzle: Exclusion 3) | 86 nM | 77.3 nM | – | – | – | –
ACGUCCUUGGUAAGGAUAUCGAUGGAGGCGAUCCACGAGAAGGUACAUGAGGAUCACCCAUGUAUACGAAUACG [Eternabot (L1) Solution 94] (Eterna round: R97, puzzle: Brourd's mod of Exclusion 4) | 18.4 nM | 17.8 nM | – | – | – | –
AGCUAGAUAGGAUAUGCCCGGGAUAACAUGAGGAUCACCCAUGUGGCCGAAUCAAGUCCAGCAGAAGGGUUUGGGA [Mod of ViennaUCT 11 - Jieux - Exclusion 5] (Eterna round: R97, puzzle: Exclusion 5) | 43.2 nM | 34.8 nM | – | – | – | –
CCAUCGUGUGUGAGGAUAUGCUGGACCUUGGUUCAGCAGAAGGCACAUGAGGAUCACCCAUGUGAAUACGGUGG [Mat - Exclusion 4 - JL Mod - D90] (puzzle: Brourd's mod of Exclusion 4) | – | – | – | 16.1 nM | – | –
ACAAGCUUAAUCAGUAUGAACAUGAGGAUCACCCAUGUAAAAGGGAAUACUAUUGGGUUUUUUAUAGCUCGUCUUAU [JR_STOV1_Sub018] (Eterna round: R97, puzzle: Sensor, turn-off variant 1) | 17.8 nM | 21.7 nM | – | – | – | –
UAUAUAUAGUAAGGAUAUGUAAUUAUUUGAUAAACAGAAGGUACUGACAUGAGGAUCACCCAUGUUUUAGUGUGGGCAUGUAGA [JMF's solution 42] (Eterna round: R96, puzzle: Exclusion NG 1) | – | – | – | – | – | 72.7 nM
GGACAUAAAGUCAGGAUAUUAAGGCGAACAAGCGAUGAGAAGGGACAUGAGGAUCACCCAUGUGAUUCGCAUCA [Raerce] (Eterna round: R97, puzzle: Brourd's mod of Exclusion 4) | 32.7 nM | 24.1 nM | – | – | – | –
